Measurements reported in patent publication US20050170434.

Target: p38 MAPK, Q16539
Sequence (Q16539 2-360): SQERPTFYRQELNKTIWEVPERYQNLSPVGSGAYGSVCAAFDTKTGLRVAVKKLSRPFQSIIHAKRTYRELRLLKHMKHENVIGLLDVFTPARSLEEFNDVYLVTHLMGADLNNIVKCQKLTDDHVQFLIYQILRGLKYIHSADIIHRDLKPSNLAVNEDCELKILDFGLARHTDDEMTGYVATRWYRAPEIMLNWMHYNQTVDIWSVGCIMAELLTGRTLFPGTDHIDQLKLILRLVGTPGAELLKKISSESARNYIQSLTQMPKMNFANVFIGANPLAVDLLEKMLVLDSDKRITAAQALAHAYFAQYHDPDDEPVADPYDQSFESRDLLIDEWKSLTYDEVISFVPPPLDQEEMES

B1: MKK3b (WT) (protein)
chain: MESPASSQPASMPQSKGKSKRKKDLRISCMSKPPAPNPTPPRNLDSRTFITIGDRNFEVEADDLVTISELGRGAYGVVEKVRHAQSGTIMAVKRIRATVNSQEQKRLLMDLDINMRTVDCFYTVTFYGALFREGDVWICMELMDTSLDKFYRKVLDKNMTIPEDILGEIAVSIVRALEHLHSKLSVIHRDVKPSNVLINKEGHVKMCDFGISGYLVDSVAKTMDAGCKPYMAPERINPELNQKGYNVKSDVWSLGITMIEMAILRFPYESWGTPFQQLKQVVEEPSPQLPADRFSPEFVDFTAQCLRKNPAERMSYLELMEHPFFTLHKTKKTDIAAFVKEILGEDS
p38 phosphorylation (western blot using anti-phospho-p38 antibodies): in MKK3b (WT)-infected cells, the basal level of phosphorylated p38 protein dramatically increased compared with the basal level in cells infected with vector (TICD8)
